One test concerns the target T1, murine PD-1 (murine, UniProt Q02242 25-167, limits assumed).
T1 construct: also called mouse PD-1
T1 sequence (looked up): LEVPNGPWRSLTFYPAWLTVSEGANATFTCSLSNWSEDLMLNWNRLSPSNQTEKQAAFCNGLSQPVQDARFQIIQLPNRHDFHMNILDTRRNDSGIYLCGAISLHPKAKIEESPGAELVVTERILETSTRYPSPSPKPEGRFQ
Description: murine PD-1 binding ELISA. For orientation: ELISA stands for enzyme-linked immunosorbent assay.

The target in test [1] is T2, His-tagged human PD-1 protein (human, UniProt Q15116 25-170, limits assumed).
T2 construct: SPR analyte; also called his-tagged antigen PD-1; not shown: His tag
The test is described as follows: SPR; Fab-SASA captured on immobilised BSA, his-tagged PD-1 as analyte. The procedure: For affinity ranking, BSA was immobilized onto the sensor chip using amine coupling method. The selected Fab-SASA secreted to the culture medium was injected and captured by BSA through the tight binding between BSA and SASA (capture phase). After equilibration, his-tagged antigen PD-1 was injected for 300 seconds (association phase) followed by the injection of running buffer for 900 seconds (dissociation phase). The surface was regenerated before the injection of another three Fab-SASA clones. The process was repeated until all selected Fab-SASA proteins were analyzed. Responses of reference flow cell were subtracted from those of Fab-SASA flow cells during each cycle. The antibodies were ranked by their dissociation rate constants (off-rates, […]). […]

For test [2], the target named is T2, His-tagged human PD-1 protein. Description: SPR (Biacore T200); IgG captured by anti-human Fc gamma, His-tagged human PD-1 as analyte, 1:1 model. As for the experimental part:
The binding affinity of the purified IgGs to human PD-1 protein were determined using a Surface Plasmon Resonance (SPR) biosensor, Biacore T200 (GE Healthcare). Antibodies were captured on the sensor chip pre-coated with anti-human Fc gamma. His-tagged human PD-1 protein was used as analyte. The data of dissociation (kd) and association (kₐ) rate constants were obtained using Biacore T200 evaluation software. The equilibrium dissociation constants (KD) were calculated from the ratio of kd over kₐ. Binding data for each antibody was processed and fitted to 1:1 interaction model using Biacore T200 evaluation software. All experimental data could be well fitted to the model.

Test [3] has as its target T3, human PD-1 (human, UniProt Q15116 25-167).
T3 construct: The immunogen was PD1/Fc (Leu25-Gln167 fused to human IgG1 Pro100-Lys330); also called huPD-1; hPD-1
Description: SPR, multiple-cycle, crude Fab from E. coli; antigen form not stated. From the text:
(§1) A homology model of mouse anti-PD1 Fv was built wherein putative back mutation sites (i.e., buried residues of the frameworks that are different in the mouse and human acceptor sequences) were identified. There were a total of 14 putative back mutation sites. A variant humanized Fab comprising all 14 of the putative back mutation sites of PD1-grafted Ab mutated back to their mouse counterparts (hereinafter identified as “PD1-BM Ab”) comprising the heavy chain variable region sequence set forth in SEQ ID NO: 38 and the light chain variable region sequence set forth in SEQ ID NO: 39, was synthesized. In addition, 14 variants of PD1-BM Ab (hereinafter identified as Fabs 1-14), each having at least one of the putative 14 back mutation sites in PD1-BM Ab mutated back to the human counterpart, were synthesized. These constructs were used to transform E. coli TG1 strain. Single colonies were pick for each individual construct and grown in E. coli medium. Crude chimeric and humanized Fabs were collected and subjected to multiple-cycle affinity estimation by Surface Plasmon Resonance (SPR).

Test [4] concerns the target T3, human PD-1. Description: SPR; antigen form not stated. (In SPR one partner is held on a chip, and binding of the other changes the refractive index at the surface.)
Test [5] has as its target T3, human PD-1. The test is described as follows: SPR, multiple-cycle, crude Fab from E. coli.
Description: as §1

Test [6] concerns the target T3, human PD-1. Description: SPR, multiple-cycle, crude Fab from E. coli; antigen form not stated; footnote: *out of the detection limit.
Description: as §1

For test [7], the target named is T2, His-tagged human PD-1 protein. Description: SPR (Biacore T200); antibody captured by anti-human Fc gamma, His-tagged human PD-1 as analyte. As for the experimental part:
Using the HCVR sequence and LCVR sequence of mAb PD1#3, a murine-human chimeric Fab (hereinafter “chimeric IgG”) was prepared which comprised the heavy chain sequence set forth in SEQ ID NO: 32 and the light chain sequence set forth in SEQ ID NO: 34. The heavy chain and light chain of the chimeric IgG are encoded by the nucleic acids set forth in SEQ ID NOs: 33 and 35, respectively. Nucleic acids encded by SEQ ID NO: 33 and SEQ ID NO: 35 which include a leader sequence were amplified and inserted into pTT5 to make an expression plasmid of the full-length IgG. The heavy chain and light chain expression plasmids were used to co-transfect 100 mL HEK293-6E cells. The recombinant IgG secreted into to media was purified using protein A affinity. The purified IgG migrated as ˜170 kDa band in SDS-PAGE under non-reducing conditions, ˜55 kDa and ˜30 kDA bands under reducing condition. The purity of the chimeric IgG is >90%, and the yield form the 100 mL culture was 0.46 mg. The binding affinity between the chimeric IgG and PD1/Fc fusion protein was determined using a Surface Plasmon Resonance (SPR) biosensor, Biacore T200 (GE Healthcare). PD1#3 was immobilized on the sensor chip pre-coated with anti-human Fc gamma. His-tagged human PD-1 protein was used as analyte.

Where a chain is given by its changes, count along the chain named. In names and notes the source's numbering stands. A value given as a limit tells only on which side of the number the result lay.

Broadly, the Kd is the equilibrium constant for the complex coming apart. A higher Kd goes with a looser complex. For orientation: koff means a measure of how fast the partners let go of each other. As a reminder, the kon is the second-order rate constant of association. High values mean faster complex formation, low ones slower complex formation.

T2 sequence (Q15116 25-170 limits assumed): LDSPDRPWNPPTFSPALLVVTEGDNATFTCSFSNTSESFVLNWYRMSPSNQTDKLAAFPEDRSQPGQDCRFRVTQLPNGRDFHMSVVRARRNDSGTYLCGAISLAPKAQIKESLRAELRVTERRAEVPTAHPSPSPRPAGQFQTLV
T3 sequence (Q15116 25-167 limits assumed): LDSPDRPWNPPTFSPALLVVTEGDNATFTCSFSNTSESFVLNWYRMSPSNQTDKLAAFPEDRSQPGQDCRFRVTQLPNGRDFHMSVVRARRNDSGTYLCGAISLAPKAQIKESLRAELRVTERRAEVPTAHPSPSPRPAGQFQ

B1: PD1#1 (antibody, V domains shown)
VH: QVQLQQPGAELVMPGASVKMSCKASGYTITDCWMHWVKQRPGQGLEWIGAIDTSNSYTTYNQKFKGKATLTVDESSSTAYMQFNSLTSDDSAVYFCAISLQRPFDYWGQGTTLTVSS
VL: DIQMTQSPASLSASVGENVTITCRASENVYSYLAWYQQKEGKSPQLLVYNAKTLTGGVPSRFSGSGSGTQFSLRISSLQPEDFGSYYCLQHYGYPFTFGSGTKLEKK
notes: Murine hybridoma mAb purified on Protein A; also called mAb PD1#1
Consider B1, for which the binding result with murine PD-1 is “no binding”.

B2: AS05618 (Fab, V domains shown)
VH: EVQLVESGGGLVQPGGSLRLSCAASGFVFSRYDMAWVRQTPGKGLEWVSFISGGGSNTYYPDTVKGRFTISRDNSKNTLYLQMNSLRAEDTAVYYCISPYYYAMEYWGQGTTVTVSS
VL: DIQMTQSPSSISTSVGDRVTITCKASQDVDTAVAWYQQKPGKSPKLLIHWASTRHTGVPSRFSGSGSGTDFTLTISSLQPEDFADYFCQQYSTFPWTFGGGTKLEIK
notes: Humanized Fab-SASA clone from the phage library
In test [1], B2 yielded a Kd of 0.41 nM, an off-rate (koff) of 0.000151 s⁻¹ and a kon of 369000 M⁻¹ s⁻¹.

B3: AS05617 (IgG) (antibody, V domains shown)
VH: B2 VH
VL: DIQMTQSPSSISTSVGDRVTITCKASQDVDTAVAWYQQKPGKSPKLLIYWASTRHTGVPSRFSGSGSGTDFTLTISSLQPEDFADYFCQQYSTFPWTFGGGTKVEIKR
notes: Full-length humanized IgG from HEK293 cells
For B3, in test [2], the Kd is 1 nM, the off-rate (koff) turned out to be 0.000183 s⁻¹ and the kon was 183000 M⁻¹ s⁻¹.

B4: PD1-BM Ab (Fab) (Fab, V domains shown)
VH: B2 VH with S49A
VL: B2 VL with I75L, L78V, F83L
notes: Humanized Fab with all 14 back mutations; also called PD1-BM Fab
Regarding B4, in the test with human PD-1 [3], binding was put at a Kd of 0.15 nM, the koff was found to be 5.5e-05 s⁻¹ and the kon turned out to be 360000 M⁻¹ s⁻¹. In test [1], binding was put at a Kd of 0.0564 nM, the koff was found to be 1.78e-05 s⁻¹ and the on-rate constant (kon) is 315000 M⁻¹ s⁻¹.

B5: PD1-BM Ab (IgG) (antibody, V domains shown)
VH: B2 VH with S49A
VL: B3 VL with Y49H, I75L, L78V, F83L, V104L
notes: as for B3
In test [2], B5 yielded a Kd of 0.579 nM, an off-rate constant (koff) of 0.000139 s⁻¹ and an on-rate (kon) of 241000 M⁻¹ s⁻¹.

B6: PD1-BM-min Ab (Fab) (Fab, V domains shown)
VH: B2 VH with T40A
VL: B2 VL with I11V, T13A, S43A, H49Y, D85T, F87Y, L104V
notes: Humanized Fab with only the VH A97I and K98S back mutations; also called PD1-Grafted VH-A97I & K98S
B6: in the test with human PD-1 [4], the Kd is 0.253 nM, the koff was determined as 8.4e-05 s⁻¹ and the kon came out at 332000 M⁻¹ s⁻¹.

B7: Fab 4 (Fab, V domains shown)
VH: B2 VH with S49A, S98K
VL: B2 VL with I75L, L78V, F83L
notes: Crude Fab from E. coli; also called PD1-BM VH-S98K
For B7, the binding result in the test with human PD-1 [5] was “no binding”.

B8: PD1-BM-min (IgG) (antibody, V domains shown)
VH: B2 VH with T40A
VL: B3 VL with I11V, T13A, S43A, D85T, F87Y
notes: as for B3
In test [2], B8 showed a Kd of 0.943 nM, an off-rate (koff) of 0.000263 s⁻¹ and a kon of 279000 M⁻¹ s⁻¹.

B9: Fab 2 (Fab, V domains shown)
VH: B2 VH
VL: B2 VL with I75L, L78V, F83L
notes: Crude Fab from E. coli; also called PD1-BM VH-A49S
On to B9, for which the kon in the test with human PD-1 [3] came out at 320000 M⁻¹ s⁻¹. For the same molecule, in the test with human PD-1 [6], the equilibrium dissociation constant (Kd) is no more than 0.025 nM and the koff is less than 8.1e-06 s⁻¹.

B10: chimeric IgG (antibody, V domains shown)
VH: EVQLVESGGDLVKPGGSLKLSCAASGFVFSRYDMAWVRQTPEKRLEWVAFISGGGSNTYYPDTVKGRFTISRDNAKNTLYLQMTSLKSEDTAVYYCISPYYYAMEYWGQGTSVTVSS
VL: DIVMTQSHKFISTSVGDRVSITCKASQDVDTAVAWYQQKPGQSPKLLIHWASTRHTGVPDRFTGGGSGTDFTLTLSNVQSEDLADYFCQQYSTFPWTFGGGTRLEIKR
notes: Full-length IgG from HEK293-6E cells; also called murine-human chimeric antibody derived from PD1#3
For B10, in test [2], the Kd was 0.487 nM, the koff was found to be 0.000129 s⁻¹ and the kon turned out to be 265000 M⁻¹ s⁻¹. Also, the affinity in test [7], expressed as Kd, was 0.48 nM.

B11: PD1#3 (antibody, V domains shown)
VH: B10 VH
VL: DIVMTQSHKFISTSVGDRVSITCKASQDVDTAVAWYQQKPGQSPKLLIHWASTRHTGVPDRFTGGGSGTDFTLTLSNVQSEDLADYFCQQYSTFPWTFGGGTRLEIK
notes: Murine hybridoma mAb purified on Protein A; also called mAb PD1#3
Take B11: the binding result in the test with murine PD-1 is “no binding”.

B12: PD1#4 (antibody, V domains shown)
VH: EVRLVESGGGLVKPGGSLKVSCVASGFTFSRYGMSWVRQTPEKRLEWVATISGGGRDTYYPDSVKGRFTISRDNAKNNLYLQMSSLRSEDTALYYCVRQEDIVWFAYWGQGTLVTVSA
VL: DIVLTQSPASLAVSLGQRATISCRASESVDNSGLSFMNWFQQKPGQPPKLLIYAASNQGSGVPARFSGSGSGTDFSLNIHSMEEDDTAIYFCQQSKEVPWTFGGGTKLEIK
notes: Murine hybridoma mAb purified on Protein A; also called mAb PD1#4
Regarding B12, in the test with murine PD-1, the binding result is “no binding”.

These data come from patent US20190330346A1 (REMD BIOTHERAPEUTICS, published 2019).
